Test results taken from patent US20050143285A1.

Experiments:
[1] = molecular target: T1, Aplysia californica acetylcholine binding protein (AChBP) (Aplysia californica)
T1 chain: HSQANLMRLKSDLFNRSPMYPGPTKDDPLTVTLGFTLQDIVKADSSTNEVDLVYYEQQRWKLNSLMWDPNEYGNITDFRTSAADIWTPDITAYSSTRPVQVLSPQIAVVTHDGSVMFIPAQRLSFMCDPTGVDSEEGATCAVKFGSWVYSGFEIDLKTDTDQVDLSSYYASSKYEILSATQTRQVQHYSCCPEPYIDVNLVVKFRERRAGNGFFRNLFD

[2] = molecular target: T2, Lymnaea stagnalis acetylcholine binding protein (AChBP) (Lymnaea stagnalis), P58154
[3] = molecular target: T1, Aplysia californica acetylcholine …
[4] = molecular target: T1, Aplysia californica acetylcholine …
[5] = molecular target: T2, Lymnaea stagnalis acetylcholine binding …; test: stopped-flow spectrofluorimetry
[6] = molecular target: T2, Lymnaea stagnalis acetylcholine binding …; test: ratio of Kd on Lymnaea AChBP to Kd on Aplysia AChBP
[7] = molecular target: T1, Aplysia californica acetylcholine …; test: stopped-flow spectrofluorimetry, excitation 280 nm, emission above 305 nm
[8] = molecular target: T2, Lymnaea stagnalis acetylcholine binding …; test: as above

T2 sequence (P58154 20-229): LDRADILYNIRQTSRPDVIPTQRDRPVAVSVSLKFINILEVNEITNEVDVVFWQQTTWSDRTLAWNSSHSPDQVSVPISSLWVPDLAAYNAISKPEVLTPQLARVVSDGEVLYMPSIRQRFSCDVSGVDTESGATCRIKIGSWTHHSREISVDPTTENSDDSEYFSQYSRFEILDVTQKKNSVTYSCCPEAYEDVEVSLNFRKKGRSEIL

## GCCSDPRCAWRC (modifications not checked) [α-conotoxin ImI, P50983 5-16]
[1]
  Kd: 0.00088 µM
[2]
  Kd: 14 µM
[3]
  koff: 0.01 s⁻¹
[4]
  fold greater affinity than for L-AChBP: > 10000 fold
[5]
  koff: 19 s⁻¹
[6]
  Kd Ratio L/A: 16000
[7]
  kon: 1.6e+07 M⁻¹ s⁻¹
[8]
  kon: 1.4e+06 M⁻¹ s⁻¹
